The labels stand for the following.
B1: UV excision repair protein RAD23 homolog B (Homo sapiens), P54727 (parent)
chain: MQVTLKTLQQQTFKIDIDPEETVKALKEKIESEKGKDAFPVAGQKLIYAGKILNDDTALKEYKIDEKNFVVVMVTKPKAVSTPAPATTQQSAPASTTAVTSSTTTTVAQAPTPVPALAPTSTPASITPASATASSEPAPASAAKQEKPAEKPAETPVATSPTATDSTSGDSSRSNLFEDATSALVTGQSYENMVTEIMSMGYEREQVIAALRASFNNPDRAVEYLLMGIPGDRESQAVVDPPQAASTGAPQSSAVAAAAATTTATTTTTSSGGHPLEFLRNQPQFQQMRQIIQQNPSLLPALLQQIGRENPQLLQQISQHQEHFIQMLNEPVQEAGGQGGGGGGGSGGIAEAGSGHMNYIQVTPQEKEAIERLKALGFPEGLVIQAYFACEKNENLAANFLLQQNFDED

Variants of B1 are the subject of one test. The note with it: with ef1a1_human EEF1A1, P68104.
Sequence of ef1a1_human EEF1A1, P68104 (P68104 whole entry): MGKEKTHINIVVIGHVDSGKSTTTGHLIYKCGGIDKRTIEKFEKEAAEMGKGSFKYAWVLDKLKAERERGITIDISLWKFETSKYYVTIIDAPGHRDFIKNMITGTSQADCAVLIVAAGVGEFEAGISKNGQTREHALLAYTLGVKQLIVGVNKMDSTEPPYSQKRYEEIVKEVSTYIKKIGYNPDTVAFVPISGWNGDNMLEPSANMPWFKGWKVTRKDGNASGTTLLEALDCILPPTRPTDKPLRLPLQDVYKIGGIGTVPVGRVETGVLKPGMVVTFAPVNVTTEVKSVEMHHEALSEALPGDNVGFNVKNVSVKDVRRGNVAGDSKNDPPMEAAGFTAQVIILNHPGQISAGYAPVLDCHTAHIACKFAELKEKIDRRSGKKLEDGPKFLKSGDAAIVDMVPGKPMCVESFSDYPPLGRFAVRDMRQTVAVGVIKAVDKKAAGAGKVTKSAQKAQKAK
Take K6A: the “effect of a mutation on the interaction” value is “disrupting interaction”.

The variants in another test derive from B1. To be noted: with uba3_human UBA3, Q8TBC4.
Sequence of uba3_human UBA3, Q8TBC4 (Q8TBC4 whole entry): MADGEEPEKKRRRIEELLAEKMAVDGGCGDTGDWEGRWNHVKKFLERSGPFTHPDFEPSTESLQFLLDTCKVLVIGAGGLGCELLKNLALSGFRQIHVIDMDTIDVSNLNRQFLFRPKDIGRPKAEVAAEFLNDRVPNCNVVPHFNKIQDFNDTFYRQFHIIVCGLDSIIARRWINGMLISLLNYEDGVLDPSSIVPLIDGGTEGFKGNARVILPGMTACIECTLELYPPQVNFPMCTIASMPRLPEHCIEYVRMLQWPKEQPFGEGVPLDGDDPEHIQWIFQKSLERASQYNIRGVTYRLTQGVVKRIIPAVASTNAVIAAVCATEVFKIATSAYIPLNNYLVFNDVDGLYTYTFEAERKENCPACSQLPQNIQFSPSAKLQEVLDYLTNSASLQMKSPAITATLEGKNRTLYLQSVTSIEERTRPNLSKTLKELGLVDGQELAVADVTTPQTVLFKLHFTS
For the variant K6A, the “effect of a mutation on the interaction” value is given as “increasing interaction”.

Source of the values: IntAct's records for PubMed 16712842.
